Reference: patent publication EP4762086
Where “and” joins values, the source holds several entries; their conditions need not be identical. Equal entries are not always repeated.

Molecular target: MUC5AC antigen (human, UniProt P98088)
Experiment: SPR

B1: NEO-102 (Ensituximab) (antibody, V domains shown)
VH: QVQLKESGPDLVAPSQSLSITCTVSGFELSKFGVIWVRQPPGKGLEWLGVIWGDGSTVYNSKLISRLSISKENSKSQVFLKLNSLQADDTATYYCVKPGGDYWGHGTSVTVSS
VL: QVVLTQSPVIMSASPGEKVTMTCSASSSISYMYWYQQKPGTSPKRWIYDTSKLGSGVPARFSGSGSGTSYSLTISNMEAGDAATYYCHQRDSYPWTFGGGTNLEIK
  Kd: 7.38 nM and 5.6 nM
